# Test results: patent US20040166543
# Positions count from the first letter of the chain named.
# Columns and labels:
# MUC1/CD (S40A/S44A) = test system: T1, MUC1/CD (S40A/S44A)
# T1 sequence: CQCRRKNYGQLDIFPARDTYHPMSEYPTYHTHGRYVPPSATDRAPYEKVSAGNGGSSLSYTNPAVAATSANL
# [1] = test system: T2, MUC1/CD (purified hexahistidine tagged MUC1 cytoplasmic domain), unphosphorylated
# T2 sequence: T1 sequence with A40S, A44S
# MUC1/CD(S40A) = test system: T3, MUC1/CD(S40A)
# T3 sequence: T1 sequence with A44S
# MUC1/CD(S44A) = test system: T4, MUC1/CD(S44A)
# T4 sequence: T1 sequence with A40S
# MUC1/CD(T41A) = test system: T5, MUC1/CD(T41A)
# T5 sequence: T1 sequence with A40S, T41A, A44S
# MUC1/CD(Y46F) = test system: T6, MUC1/CD(Y46F)
# T6 sequence: T1 sequence with A40S, A44S, Y46F
substance,measurement,setting,value
purified recombinant PKCδ (PanVera / Calbiochem-Novabiochem),"phosphorylation ([γ-32P]ATP, autoradiography)",MUC1/CD (S40A/S44A),phosphorylation of MUC1 by PKCδ was unaffected by S to A mutations of either or both of the flanking serines
same,"phosphorylation of MUC1/CD ([γ-32P]ATP, SDS-PAGE, autoradiography)",[1],demonstrated phosphorylation of MUC1 CD
same,"phosphorylation ([γ-32P]ATP, autoradiography)",MUC1/CD(S40A),phosphorylation of MUC1 by PKCδ was unaffected by S to A mutations of either or both of the flanking serines
same,"phosphorylation ([γ-32P]ATP, autoradiography)",MUC1/CD(S44A),phosphorylation of MUC1 by PKCδ was unaffected by S to A mutations of either or both of the flanking serines
same,"phosphorylation ([γ-32P]ATP, autoradiography)",MUC1/CD(T41A),PKCδ-mediated phosphorylation of MUC1/CD(T41A) was attenuated compared to that obtained with wild-type MUC1/CD
purified c-Src polypeptide (Oncogene Research Products),"phosphorylation of MUC1/CD ([γ-32P]ATP, SDS-PAGE, autoradiography)",[1],demonstrated c-Src-mediated phosphorylation of MUC1/CD
same,"phosphorylation of MUC1/CD(Y46F) ([γ-32P]ATP, autoradiography)",MUC1/CD(Y46F),Incubation of MUC1/CD(Y46F) with c-Src demonstrated a decrease in phosphorylation as compared to that found with wild-type MUC1/CD
